Measured values as given in patent publication US20200407419A1 (LONZA SALES, published 2020).
One block for each molecule: values may come before it.

Legend:
[1] = target: IL-7 receptor (IL-7R) on PBMCs (UniProt P16871); assay: cell-based or functional assay
CD40 on human B-cells = CD40 on human B-cells (human, UniProt P25942 21-277); assay: cell-based or functional assay
CD40 on human B-cells, sequence (P25942 21-277): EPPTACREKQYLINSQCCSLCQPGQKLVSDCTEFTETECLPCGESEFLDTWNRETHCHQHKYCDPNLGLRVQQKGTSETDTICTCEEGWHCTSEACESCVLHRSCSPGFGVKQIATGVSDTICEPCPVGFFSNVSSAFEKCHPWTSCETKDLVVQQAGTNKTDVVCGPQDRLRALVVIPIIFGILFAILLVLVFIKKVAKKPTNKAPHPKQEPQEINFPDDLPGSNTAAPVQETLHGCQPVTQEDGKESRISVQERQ

IL-7 receptor (IL-7R) on PBMCs, sequence (P16871 21-459 limits assumed): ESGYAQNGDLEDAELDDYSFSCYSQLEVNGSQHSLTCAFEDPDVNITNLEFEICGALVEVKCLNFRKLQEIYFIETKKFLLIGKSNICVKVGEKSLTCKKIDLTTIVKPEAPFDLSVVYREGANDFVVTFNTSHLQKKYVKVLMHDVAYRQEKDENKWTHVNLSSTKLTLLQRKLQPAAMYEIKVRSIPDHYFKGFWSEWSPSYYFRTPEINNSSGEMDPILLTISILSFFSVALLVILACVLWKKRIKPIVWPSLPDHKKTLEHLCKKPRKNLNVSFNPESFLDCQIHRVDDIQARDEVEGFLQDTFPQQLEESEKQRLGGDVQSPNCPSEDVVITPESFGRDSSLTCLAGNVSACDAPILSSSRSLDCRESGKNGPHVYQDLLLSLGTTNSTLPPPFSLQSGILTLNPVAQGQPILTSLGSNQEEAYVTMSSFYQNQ

- IC50 (p/ml) of reduction of IL-7R levels on PBMCs [1]: 1.1e+11 p/ml
Molecule: IL-7 exosomes from the pDisplay plasmid encoding a fusion of IL-7 and PDGF Receptor (ligand)

- EC50 of B-cell activation (CD69 positivity on B-cells), ng/mL of CD40L (CD40 on human B-cells): 1.89 ng/mL
- EC50 of B-cell activation (CD69 positivity on B-cells), particles/mL (CD40 on human B-cells): 4.53e+08 particles/mL
Molecule: exosomes with trimeric CD40L-PTGFRN construct pCB-527 (PTGFRN-trimeric CD40L-GFP) (ligand)

- EC50 of B-cell activation (CD69 positivity on B-cells), ng/mL of CD40L (CD40 on human B-cells): 28.5 ng/mL
Molecule: recombinant human CD40L (Biolegend, Catalog No. 591702) (from UniProt P29965 113-261) (ligand)

- EC50 of B-cell activation (CD69 positivity on B-cells), ng/mL of CD40L (CD40 on human B-cells): 1.68 ng/mL
- EC50 of B-cell activation (CD69 positivity on B-cells), particles/mL (CD40 on human B-cells): 6.63e+08 particles/mL
B1: exosomes with trimeric CD40L-PTGFRN construct pCB-766 (tag-less, lacking the C-terminal GFP) (ligand)
chain: MQKGDQNPQIAAHVISEASSKTTSVLQWAEKGYYTMSNNLVTLENGKQLTVKRQGLYYIYAQVTFCSNREASSQAPFIASLCLKSPGRFERILLRAANTHSSAKPCGQQSIHLGGVFELQPGASVFVNVTDPSQVSHGTGFTSFGLLKLGSGGSGGSGGSGMQKGDQNPQIAAHVISEASSKTTSVLQWAEKGYYTMSNNLVTLENGKQLTVKRQGLYYIYAQVTFCSNREASSQAPFIASLCLKSPGRFERILLRAANTHSSAKPCGQQSIHLGGVFELQPGASVFVNVTDPSQVSHGTGFTSFGLLKLGSGGSGGSGGSGMQKGDQNPQIAAHVISEASSKTTSVLQWAEKGYYTMSNNLVTLENGKQLTVKRQGLYYIYAQVTFCSNREASSQAPFIASLCLKSPGRFERILLRAANTHSSAKPCGQQSIHLGGVFELQPGASVFVNVTDPSQVSHGTGFTSFGLLKLSAGGGGSGGGGSRVVRVPTATLVRVVGTELVIPCNVSDYDGPSEQNFDWSFSSLGSSFVELASTWEVGFPAQLYQERLQRGEILLRRTANDAVELHIKNVQPSDQGHYKCSTPSTDATVQGNYEDTVQVKVLADSLHVGPSARPPPSLSLREGEPFELRCTAASASPLHTHLALLWEVHRGPARRSVLALTHEGRFHPGLGYEQRYHSGDVRLDTVGSDAYRLSVSRALSADQGSYRCIVSEWIAEQGNWQEIQEKAVEVATVVIQPSVLRAAVPKNVSVAEGKELDLTCNITTDRADDVRPEVTWSFSRMPDSTLPGSRVLARLDRDSLVHSSPHVALSHVDARSYHLLVRDVSKENSGYYYCHVSLWAPGHNRSWHKVAEAVSSPAGVGVTWLEPDYQVYLNASKVPGFADDPTELACRVVDTKSGEANVRFTVSWYYRMNRRSDNVVTSELLAVMDGDWTLKYGERSKQRAQDGDFIFSKEHTDTFNFRIQRTTEEDRGNYYCVVSAWTKQRNNSWVKSKDVFSKPVNIFWALEDSVLVVKARQPKPFFAAGNTFEMTCKVSSKNIKSPRYSVLIMAEKPVGDLSSPNETKYIISLDQDSVVKLENWTDASRVDGVVLEKVQEDEFRYRMYQTQVSDAGLYRCMVTAWSPVRGSLWREAATSLSNPIEIDFQTSGPIFNASVHSDTPSVIRGDLIKLFCIITVEGAALDPDDMAFDVSWFAVHSFGLDKAPVLLSSLDRKGIVTTSRRDWKSDLSLERVSVLEFLLQVHGSEDQDFGNYYCSVTPWVKSPTGSWQKEAEIHSKPVFITVKMDVLNAFKYPLLIGVGLSTVIGLLSCLIGYCSSHWCCKKEVQETRRERRRLMSMEMD
